# Experimental data published in patent CN116102649A (SHANGHAI INST OF BIOLOGICAL PRODUCTS CO LTD, dated 2023).
# T1: 人CLDN18.1 (claudin-18 isoform 1 precursor [Homo sapiens], NP_057453.1) (human, UniProt P56856 1-261)
# T1 construct: Full-length gene in pEGFP-N2, stably expressed on HEK293 cells (HEK293-hCLDN18.1); also called hCLDN18.1; HEK293-hCLDN18.1
# T1 sequence: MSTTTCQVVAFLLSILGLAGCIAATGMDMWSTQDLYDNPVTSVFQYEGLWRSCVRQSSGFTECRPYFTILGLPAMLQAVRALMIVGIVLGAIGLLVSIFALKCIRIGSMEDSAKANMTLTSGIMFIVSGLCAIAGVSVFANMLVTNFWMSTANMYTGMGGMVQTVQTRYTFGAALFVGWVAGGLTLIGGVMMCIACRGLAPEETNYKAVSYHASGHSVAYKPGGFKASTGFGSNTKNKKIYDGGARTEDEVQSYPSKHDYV
# Experiments:
# [1] = target: T2, 人CLDN18.2 (claudin-18 isoform 2 [Homo sapiens], NP_001002026.1) (human); test: cell-based or functional assay
# [2] = target: T2, 人CLDN18.2 (claudin-18 isoform 2 [Homo …); test: cell-based or functional assay; remark: listed apart in the source
# [3] = target: T1, 人CLDN18.1 (claudin-18 isoform 1 …); test: flow cytometry on HEK293-hCLDN18.1 cells
# [4] = target: T2, 人CLDN18.2 (claudin-18 isoform 2 [Homo …); test: cell ELISA on fixed HEK293-hCLDN18.2 cells
# [5] = target: T2, 人CLDN18.2 (claudin-18 isoform 2 [Homo …); test: cell ELISA on fixed NUGC4 cells (endogenous human CLDN18.2)
# [6] = target: T2, 人CLDN18.2 (claudin-18 isoform 2 [Homo …); test: flow cytometry on HEK293-hCLDN18.2 cells, MFI against concentration
Binder,"CDC on HEK293-hCLDN18.2 cells (rabbit complement, CCK-8), EC50 [1]","ADCC reporter gene assay (Jurkat/NFAT-luc+FcγRIIIa) on HEK293-hCLDN18.2 cells, EC50 [2]",binding result [3],EC50 [4],相对结合活性 (relative to Ref.ch175) [4],EC50 [5],EC50 [6],"ADCC reporter gene assay on HEK293-hCLDN18.2 cells, EC50 [1]"
"嵌合抗体ch782 (antibody, V domains shown) VH: DVQLQESGPDLVKPSQSLSLTCTVTGYSITSGYSWHWIRQFPGNKLEWMGYIHYSDNTNYSPSLKSRISITRDTSKNQFFLQLNSVTTEDTATYYCARIYYGNSFVYWGQGTLVTVSA VL: DIVMTQSPSSLTVTAGEKVTMSCKSSQSLLNSGNQKNYLTWYQQKPGQPPKLLIYWASTRESGVPDRFTGSGSGTDFTLTINSVQAEDLAVYYCQNDYFYPYTFGGGTKLEIK",0.0309 µg/mL,0.0476 µg/mL,no binding,0.0173 µg/mL,180%,0.57 µg/mL,0.81 µg/mL,–
"嵌合抗体ch624 (antibody, V domains shown) VH: QVQLQQPGAELVRPGASVKLSCKASGYSFTSYWMNWVKQRPGQGLEWIGMIHPSDSETRLNQKFKDKATLTVDKSSSTAYMQLSSPTSEDSAVYYCARTSYGNSFAYWGQGTLVTVSA VL: DIVMTQSPSSLTVTAGEKVTMSCKSSQSLLNSGNQKNYLTWYQQKPGQPPKLLIYWASTRESGVPDRFTGSGSGTDFTLTISSVQAEDLAVYYCQNDYSYPFTFGSGTKLEIK",–,–,no binding,0.0392 µg/mL,79.3%,–,–,–
"人源化抗体hu782-HV (H1.2-V101A L2组合) (antibody, human IgG1, V domains shown) VH: QVQLQESGPGLVKPSETLSLTCTVSGYSITSGYSWHWIRQPPGKGLEWMGYIHYSDNTNYAPSLKSRITISRDTSKNQFSLKLSSVTAADTAVYYCARIYYGNSFAYWGQGTLVTVSS VL: DIVMTQSPDSLAVSLGERATINCKSSQSLLNSGNQKNYLTWYQQKPGQPPLLIYWASTRESGVPDRFSGSGSGTDFTLTISSLQAEDVAVYYCQNDYFYPYTFGGGTKLEIK",0.0476 µg/mL,–,–,–,–,–,–,0.0709 µg/mL
